Measurements reported in IntAct's records for PubMed 22307274.

B1: Histone chaperone RTT106 (Saccharomyces cerevisiae), P40161 (parent)
chain: MSKLFLDELPESLSRKIGTVVRVLPSSLEIFEELYKYALNENSNDRSGRHKKPRIDVSSDLLKTDEISETNTIFKLEGVSVLSPLRKKLDLVFYLSNVDGSPVITLLKGNDRELSIYQLNKNIKMASFLPVPEKPNLIYLFMTYTSCEDNKFSEPVVMTLNKENTLNQFKNLGLLDSNVTDFEKCVEYIRKQAILTGFKISNPFVNSTLVDTDAEKINSFHLQCHRGTKEGTLYFLPDHIIFGFKKPILLFDASDIESITYSSITRLTFNASLVTKDGEKYEFSMIDQTEYAKIDDYVKRKQMKDKSMSEELKAKSKSKGQATDGTADQPSILQEATRQMQDEKKAGVFSDDDEENDQNFEAESDLSDGSGQESSDGAEDGEEAEEDDEEDDEEEDKKGQSALNRDNSFASINGQPEQELQYKEFKEPLELEDIPIEIDNDDDEDDEDGSGVEYD

Variants of: B1
Conditions: with h3_yeast HHT1, P61830
For MSKLFLDELPESLSRKIGTVVRVLPSSLEIFEELYKYALNENSNDRSGRHKKPRIDVSSDLLKTDEISETNTIFKLEGVSVLSPLRKKLDLVFYLSNVDGSPVITLLKGNDRELSIYQLNKNIKMASFLPVPEKPNLIYLFMTYTSCEDNKFSEPVVMTLNKENTLNQFKNLGLLDSNVTDFEKCVEYIRKQAILTGFKISNPFVNSTLVDTDAEKINSFHLQCHRGTKEGTLYFLPDHIIFGFKKPILLFDASDIESITASSITRLTFNASLVTKDGEKYEFSMIDQTEYAKIDDYVKRKQMKDKSMSEELKAKSKSKGQATDGTADQPSILQEATRQMQDEKKAGVFSDDDEENDQNFEAESDLSDGSGQESSDGAEDGEEAEEDDEEDDEEEDKKGQSALNRDNSFASINGQPEQELQYKEFKEPLELEDIPIEIDNDDDEDDEDGSGVEYD [Y261A], the “effect of a mutation on the interaction” value was “disrupting interaction strength”. For MSKLFLDELPESLSRKIGTVVRVLPSSLEIFEELYKYALNENSNDRSGRHKKPRIDVSSDLLKTDEISETNTIFKLEGVSVLSPLRKKLDLVFYLSNVDGSPVITLLKGNDRELSIYQLNKNIKMASFLPVPEKPNLIYLFMTYTSCEDNKFSEPVVMTLNKENTLNQFKNLGLLDSNVTDFEKCVEYIRKQAILTGFKISNPFVNSTLVDTDAEKINSFHLQCHRGTKEGTLYFLPDHIIFGFKKPILLFDASDIESITYSSITRLTFNASLVTKDGEKYEFSMIDATEYAKIDDYVKRKQMKDKSMSEELKAKSKSKGQATDGTADQPSILQEATRQMQDEKKAGVFSDDDEENDQNFEAESDLSDGSGQESSDGAEDGEEAEEDDEEDDEEEDKKGQSALNRDNSFASINGQPEQELQYKEFKEPLELEDIPIEIDNDDDEDDEDGSGVEYD [Q288A], the “effect of a mutation on the interaction” value was “decreasing interaction strength”. MSKLFLDELPESLSRKIGTVVRVLPSSLEIFEELYKYALNENSNDRSGRHKKPRIDVSSDLLKTDEISETNTIFKLEGVSVLSPLRKKLDLVFYLSNVDGSPVITLLKGNDRELSIYQLNKNIKMASFLPVPEKPNLIYLFMTYTSCEDNKFSEPVVMTLNKENTLNQFKNLGLLDSNVTDFEKCVEYIRKQAILTGFKISNPFVNSTLVDTDAEKINSFHLQCHRGTKEGTLYFLPDHIIFGFKKPILLFDASDIESATYSSITRLTFNASLVTKDGEKYEFSMIDQTEYAKIDDYVKRKQMKDKSMSEELKAKSKSKGQATDGTADQPSILQEATRQMQDEKKAGVFSDDDEENDQNFEAESDLSDGSGQESSDGAEDGEEAEEDDEEDDEEEDKKGQSALNRDNSFASINGQPEQELQYKEFKEPLELEDIPIEIDNDDDEDDEDGSGVEYD [I259A] was tested, and the “effect of a mutation on the interaction” value was “decreasing interaction strength”. MSKLFLDELPESLSRKIGTVVRVLPSSLEIFEELYKYALNENSNDRSGRHKKPRIDVSSDLLKTDEISETNTIFKLEGVSVLSPLRKKLDLVFYLSNVDGSPVITLLKGNDRELSIYQLNKNIKMASFLPVPEKPNLIYLFMTYTSCEDNKFSEPVVMTLNKENTLNQFKNLGLLDSNVTDFEKCVEYIRKQAILTGFKISNPFVNSTLVDTDAEKINSFHLQCHRGTKEGTLYFLPDHIIFGFKKPILLFDASDIESITYSSITRLTFNASLVTKDGEKYEFSMIDQTEYAKADDYVKRKQMKDKSMSEELKAKSKSKGQATDGTADQPSILQEATRQMQDEKKAGVFSDDDEENDQNFEAESDLSDGSGQESSDGAEDGEEAEEDDEEDDEEEDKKGQSALNRDNSFASINGQPEQELQYKEFKEPLELEDIPIEIDNDDDEDDEDGSGVEYD [I294A] was tested, and the “effect of a mutation on the interaction” value was “disrupting interaction strength”. MSKLFLDELPESLSRKIGTVVRVLPSSLEIFEELYKYALNENSNDRSGRHKKPRIDVSSDLLKTDEISETNTIFKLEGVSVLSPLRKKLDLVFYLSNVDGSPVITLLKGNDRELSIYQLNKNIKMASFLPVPEKPNLIYLFMTYTSCEDNKFSEPVVMTLNKENTLNQFKNLGLLDSNVTDFEKCVEYIRKQAILTGFKISNPFVNSTLVDTDAEKINSFHLQCHRGTKEGTLYFLPDHIIFGFKKPILLFDASDIESITYSSITRLTFNASLVTKDGEKYEFSMIDQTEAAKIDDYVKRKQMKDKSMSEELKAKSKSKGQATDGTADQPSILQEATRQMQDEKKAGVFSDDDEENDQNFEAESDLSDGSGQESSDGAEDGEEAEEDDEEDDEEEDKKGQSALNRDNSFASINGQPEQELQYKEFKEPLELEDIPIEIDNDDDEDDEDGSGVEYD [Y291A] was tested, and the “effect of a mutation on the interaction” value was “disrupting interaction strength”. In the case of MSKLFLDELPESLSRKIGTVVRVLPSSLEIFEELYKYALNENSNDRSGRHKKPRIDVSSDLLKTDEISETNTIFKLEGVSVLSPLRKKLDLVFYLSNVDGSPVITLLKGNDRELSIYQLNKNIKMASFLPVPEKPNLIYLFMTYTSCEDNKFSEPVVMTLNKENTLNQFKNLGLLDSNVTDFEKCVEYIRKQAILTGFKISNPFVNSTLVDTDAEKINSFHLQCHRGTKEGTLYFLPDHIIFGFKKPILLFDASDIESITYSSITRLTANASLVTKDGEKYEFSMIDQTEYAKIDDYVKRKQMKDKSMSEELKAKSKSKGQATDGTADQPSILQEATRQMQDEKKAGVFSDDDEENDQNFEAESDLSDGSGQESSDGAEDGEEAEEDDEEDDEEEDKKGQSALNRDNSFASINGQPEQELQYKEFKEPLELEDIPIEIDNDDDEDDEDGSGVEYD [F269A], the “effect of a mutation on the interaction” value is reported as “disrupting interaction strength”.

Variants of: B1
Conditions: with h3_yeast HHT1, P61830
Remark: another data set of the same source
In the case of MSKLFLDELPESLSRKIGTVVRVLPSSLEIFEELYKYALNENSNDRSGRHKKPRIDVSSDLLKTDEISETNTIFKLEGVSVLSPLRKKLDLVFYLSNVDGSPVITLLKGNDRELSIYQLNKNIKMASFLPVPEKPNLIYLFMTYTSCEDNKFSEPVVMTLNKENTLNQFKNLGLLDSNVTDFEKCVEYIRKQAILTGFKISNPFVNSTLVDTDAEKINSFHLQCHRGTKEGTLYFLPDHIIFGFKKPILLFDASDIESATYSSITRLTFNASLVTKDGEKYEFSMIDQTEYAKIDDYVKRKQMKDKSMSEELKAKSKSKGQATDGTADQPSILQEATRQMQDEKKAGVFSDDDEENDQNFEAESDLSDGSGQESSDGAEDGEEAEEDDEEDDEEEDKKGQSALNRDNSFASINGQPEQELQYKEFKEPLELEDIPIEIDNDDDEDDEDGSGVEYD [I259A], the “effect of a mutation on the interaction” value is reported as “disrupting interaction strength”. With MSKLFLDELPESLSRKIGTVVRVLPSSLEIFEELYKYALNENSNDRSGRHKKPRIDVSSDLLKTDEISETNTIFKLEGVSVLSPLRKKLDLVFYLSNVDGSPVITLLKGNDRELSIYQLNKNIKMASFLPVPEKPNLIYLFMTYTSCEDNKFSEPVVMTLNKENTLNQFKNLGLLDSNVTDFEKCVEYIRKQAILTGFKISNPFVNSTLVDTDAEKINSFHLQCHRGTKEGTLYFLPDHIIFGFKKPILLFDASDIESITYSSITRLTFNASLVTKDGEKYEFSMIDQTEYAKIDDAVKRKQMKDKSMSEELKAKSKSKGQATDGTADQPSILQEATRQMQDEKKAGVFSDDDEENDQNFEAESDLSDGSGQESSDGAEDGEEAEEDDEEDDEEEDKKGQSALNRDNSFASINGQPEQELQYKEFKEPLELEDIPIEIDNDDDEDDEDGSGVEYD [Y297A] the “effect of a mutation on the interaction” value was “disrupting interaction strength”. MSKLFLDELPESLSRKIGTVVRVLPSSLEIFEELYKYALNENSNDRSGRHKKPRIDVSSDLLKTDEISETNTIFKLEGVSVLSPLRKKLDLVFYLSNVDGSPVITLLKGNDRELSIYQLNKNIKMASFLPVPEKPNLIYLFMTYTSCEDNKFSEPVVMTLNKENTLNQFKNLGLLDSNVTDFEKCVEYIRKQAILTGFKISNPFVNSTLVDTDAEKINSFHLQCHRGTKEGTLYFLPDHIIFGFKKPILLFDASDIESITYSSITRLTFNASLVTKDGEKYEFSMIDQTEYAKIADYVKRKQMKDKSMSEELKAKSKSKGQATDGTADQPSILQEATRQMQDEKKAGVFSDDDEENDQNFEAESDLSDGSGQESSDGAEDGEEAEEDDEEDDEEEDKKGQSALNRDNSFASINGQPEQELQYKEFKEPLELEDIPIEIDNDDDEDDEDGSGVEYD [D295A] was tested, and the “effect of a mutation on the interaction” value was “disrupting interaction strength”.
